The source of these data is paper PMC6522968.

The pKa is the negative logarithm of the acid dissociation constant. Lower therefore signals a stronger acid or weaker base.

The series has as its target Glu387 (UniProt position 387, YMYVTENGIAD). In words: kinetics. To be noted: 65 °C; 50.0 mM sodium citrate (pH 3.0–5.6), sodium phosphate (pH 6.0–8.0) and KCl/borate (pH 8.0–10.0); enzyme-substrate complex with 4Np-Glc, as described by the authors; folded, active enzyme.

“beta-glycosidase (Ssβ-gly) (Sulfolobus solfataricus (Saccharolobus solfataricus))” displayed a pKa of 3.41 ± 0.13. For the substance “beta-glycosidase (Ssβ-gly) H150A mutant (A150) (Sulfolobus solfataricus (Saccharolobus solfataricus); H150A)”, the pKa was 5.29 ± 0.18.
